Test results from PMC9554601.

Target: stabilized SARS-CoV-2 spike protein trimer (S-6P) (SARS-CoV-2) (UniProt P0DTC2)
Assay: cryo-EM structure

With “stabilized SARS-CoV-2 spike protein trimer (S-6P) (from UniProt P0DTC2)” as the substance, how does the stoichiometry N read?
Its stoichiometry N is 3.
